Source: the DeepSol protein solubility set

Assay: soluble on expression in E. coli; label from the status in PepcDB or PDB records

| Sequence | soluble on expression in E. coli |
| --- | --- |
| MGSDKIHHHHHHMVIQMKFFNREKEIHEILSILEGEPNIIYFIYGPLNSGKTALIKHIIENKLSDDYKVFYINFRTYLISEKREFIEAIFTTKKDDFFEKIKDKSEVLNLITKGAKILTGIPIPEVEFDKLFEEKINDAFQYLNSILLEVKKSGKQPVLILDELQMIKDVVLNWQKYLLKELFQFLVSLTKEQHLCHVFCLSSDSLFIEYVYSAGELEGRAKYLLVDDFDKETALKFMDFLAKEILNKKLSDEDKELIYNYVGGKPVYIYSVIDEMRYRKLEDILNLMLKEETQKLKYFLKELDYIKPKVELKDEIIEIKKDDIINALKLFKENYEVSDDDIPEPVYIYLVKKNILFLNPIEGILKPQSFLIWNAIKKLLNGH | not soluble |
| MNILRNIILFGWMAIACTAFAQDRNADKVERPNTKKINFGIKAGFNSSMFMVSELKIKDVTIDEVQNNYKIGYFGAIFMRFNIKKHFIQPEASYNVSKGEITFDKLGSQHPAIEPDYASVQSVLHSIDFPILYGYNVVKKGPYGMSIFAGPKLRYLWGKQNEITFTNFDQKGIHEKLYPLNVSVVIGVGVNISRIFFDFRYEQGIGNISKSIVYDNINSDGSTGVSPIIFRRRDSALSFSFGFIL | not soluble |
| MAAGFGRCCRVLRSISRFHWRSQHTKANRQREPGLGFSFEFTEQQKEFQATARKFAREEIIPVAAEYDKTGEYPVPLIRRAWELGLMNTHIPENCGGLGLGTFDACLISEELAYGCTGVQTAIEGNSLGQMPIIIAGNDQQKKKYLGRMTEEPLMCAYCVTEPGAGSDVAGIKTKAEKKGDEYIINGQKMWITNGGKANWYFLLARSDPDPKAPANKAFTGFIVEADTPGIQIGRKELNMGQRCSDTRGIVFEDVKVPKENVLIGDGAGFKVAMGAFDKTRPVVAAGAVGLAQRALDEATKYALERKTFGKLLVEHQAISFMLAEMAMKVELARMSYQRAAWEVDSGRRNTYYASIAKAFAGDIANQLATDAVQILGGNGFNTEYPVEKLMRDAKIYQIYEGTSQIQRLIVAREHIDKYKN | soluble |
| MGSDKIHHHHHHMTGRVVTVFGGSGSIGRQLVALLADQGARVRVAVRDTEKAHFLKPLGQLGQIAPISASVSDAASVKRAVEGADQVVNLVGILAESGRRTFQAVHVDGAATVARASAEAGVDALIHMSALGADEASDANYSKTKALGEKAVREAFPAATILRPSVVFGPDDGFFNLFAGLQRLSPVLPYFTRDGFRRGGSGVCGIDLAGSGGPKFQPVYVGDVARAMIAILDTPALRGKTYELGGPRVYSMKEIMDLVVAVTRRRTLVVPLPFWVARLQGRLLEKLPNPPLTSDQVRLMEVDNVCSGALPGLGDLGIEPEAAEAILPTYLSRFRGLDRHMILRGDGRPPKV | not soluble |
| MGSDKIHHHHHHMPIDLREFYQASDPSRTLFVNNSSDGKYYIDFSSVRGGDILGKLKQKITFFKPNEPTCTLFTGHIGCGKSTELLRLQAELEKLGFHVVYFESSDDLEMTDVDIADVLLAIARRVSQSLDKIILESPNKFNELLQGAWKVLNSEVTGVKVKVPNVGDFGVTSEKEKLSLSVGIGEITAKMKNDPTLREKLNQYLAPQKTKLLEAINQELLEPAIAKLKQQGKNGLVVIVDNLDRIDNRAKPWGRPQQEYLFVDQGEFLTKLNCHLIYTMPLSLKFSNDYGMLTQRFPEDPKVLPMVPVHWSDGSLHAQGMALMQQMVLARAFPDMTPEERLNKVTEIFDSAASLERLCQMSGGHVRDVLRLLNTWIMEEMSLPLTRDTLEQVIRSRQNEIMLPISEDEWQLLRHVKEKKKVSDDHGYQKLIRSRFVFEYRDCGESWFDVNPVLAEAKELQ | not soluble |
| MSVTVEQEAYEMPADNKKVMLKIEEVHLHSCGVFSNVYKGILREPYEKKIAIKKSWPEKGERNFEFIFLTGRERAKHKNVIHMIFAFSHSYDTKVCESYVFDFMPNTLAEVIRQKLTDLDIRLYTWQIFSGLKYLEEHKVVHRDLKPVNILVDHDTAFLKISDFGSAKIIVKGKANNFYQVTRFYRPPELLMKAMEYNSTVDVWSAGCIMAEMVKRHVVFPGRDSAHQLKLYCRCFGAPNEQDISAMKGEKLEKEYWKFTKGFGLQRLVNDISPDQLQFIKRILVYAPEKRLRGKQLLQDDFFRPLFKAGAVRHNGQKISDVITAADYKRAAENEESSACRLAQLVKTDNKDLGIPYCEKSNSYENVYARRSTLIPKEQKMARDNKSKEDSSDDRRVAPSSGEAPSAPGKRSESNKTAAIAKKSTMKSVMNAPPPRQKPE | not soluble |
| MSSQMKAFLNELQGNMEVVGEFFDNPEKVIRKFGIVGREKEALLIRDLNDMDDYALSIQNSVASPSGAHSSTCHFVRQDLQSA | not soluble |
| MAIDHYENFPVASLLLPRRLRGAVTDIYRFARAADDIADEGAAEDAERLRQLAAFRAELHRIGAEPGTLAVPASADLAPIFTPLAATIARHQLPITPFFDLLSAFEQDISVKRYESHDDLLDYCRRSANPVGRLMLHLYGAVDEANLRDADAICTGLQLVNFWQDVRIDWRKQRVYLPEEDLRRHGVSRDDLAACRLTPQWRELMAFEVQRTRALLHSGAALPRRLPGRIGLELRLVVQGGLRILQRIEDAGYDVFMNRPELGAKDWAVMLWRAFT | not soluble |
| MGSDKIHHHHHHMYLLVDVGNTHSVFSITEDGKTFRRWRLSTGVFQTEDELFSHLHPLLGDAMREIKGIGVASVVPTQNTVIERFSQKYFHISPIWVKAKNGCVKWNVKNPSEVGADRVANVVAFVKEYGKNGIIIDMGTATTVDLVVNGSYEGGAILPGFFMMVHSLFRGTAKLPLVEVKPADFVVGKDTEENIRLGVVNGSVYALEGIIGRIKEVYGDLPVVLTGGQSKIVKDMIKHEIFDEDLTIKGVYHFCFGD | not soluble |
| DTTQNLMIEGDNLEVLKLLQKSYAGKIKLIYIDPPYNTGKDFVYPDDFKDNIRNYLELTGQVEGGRKISSNTEASGRFHTDWLNMMYPRLKIARQLLSPTGVIAVHIDEHELEALVIVLRDLFGEENELGVTIWDKRNPKGDSRGIAYQHESLVLFARDAEELFARSPVRRAKRNAERMLNAASRFVTECGSIAEARAAYRSWVKSQSTLSGGESMYDKLSETGRVYRLVSMAWPNKKRAPADYFVPLKHPITGKDCPIPERGWRNPPATMKKLLEDGLIEFGPDEIMQPQRIYFLDENMYENVPSIVPFGGSDDELLKELSVPFEQPKPVDFSVQVISWCSSKDEIVMDFFAGSGTTGHAVMAQNAADGGNRRYILVQLPEPLDPENKDQKVAAEFCDKLGKPRTIAELTKERLRRAAKKIKEENPLFAGDLGFRVFKLDSSNIRA | not soluble |
| MGSDKIHHHHHHMLIPLYMRYHESLKPDPIIHDASALRLVPQIDYDFSKFDTAIRSSVGSAIRATYLDSLTKAFIQQHQQPIIVMIGCGLDARHERVGDIGKNVPFYELDLPDVIALRKQLMPPAENEILLAASAFDTDWMDELRSTYPQAQFLFVIEGVLMYFNEAQVKKLFEDLAVRFSGGEIAFDIGSTWMSRNSQKHHDVMKHMRAQFDYGCDDDHEMERWADNLHLISAKYMFDFPAWKRIGLLQAAIMWIVPFVRKSYRFLYYRIS | not soluble |
| MGSDKIHHHHHHMAKHPLVMALAKVIIAAAWADGELSLDEVNDLKRLLAELGQTGGQFALTADDWAELEIYLYSPVEAAERARLIADLRDLIITPGQQQLVLQAIERLLIADRVLTPVEREVAQEIQRALTQDSQSLLFQIGRAFRLALGIRAGGPNREDLLPEFMRNRIYYALQIRLGQHIDEFGLDRDELHVLTLAGGLLARVAYVDKQVTPAEHDRIVAILKEWWQLDDTQAALVAEVALDESAASLDFFRLTKAFADATTVERRQRFLDALFAVALADGELSGAESAEISRITAAINLPHDSFVAARLRLPRQPGKRL | not soluble |
| VPDKSPDLLFELLNDFFTQLLSAGESESMDNLIELDLTFSQVRMLFALVQHGEPLPINEVAERLRLSVAAAGRNVDQLVKLGLVVRREDERDRRVKRVSLSEAGHKVATQHIECKRDQLRRFAWRVPEIERTRLIEALQPILAGESLRELNQEILG | not soluble |
| MSLVTVDQKPNLIRHLHDLSGVWQTDITYIQLTNHRWVYLATVLDPEKRKVLGYKIGDTMTAELATSALQMALDKHRKPLIIHSDMGSQYTSAEFNIKCQNYGLKHSYSLKGHPYDNGRMEAFHSILKREEVYLKAYQTLTEVQAAIGWYINFYNRNRISNVAEGHHHHHH | not soluble |
| SNATAFVPALVASGLPNEKFCFEGFLPQKKGRMTKLKSLVDEHRTMVFYESPHRLLKTLTQFAEYFGPERQVSVSREISKIHEETVRGTLSELIEHFTATDPRGEIVIVLAGIDD | soluble |
